Results on 14 sequences are retold here after the DeepSol protein solubility set.

The nature of the data set: soluble on expression in E. coli; label from the status in PepcDB or PDB records.
As to “MKYRDLRDFLAQLERQGELKRITAPVSTRLEMTEIADRVLRAGGPALLFENARHNDAPADMPVLANLFGTPRRVAWGMGADDVGALRETGELLASLREPEAPKGLRDALAKVSMLKAALWDMSPKTVRSAACQEIVWEGADVDLGRLPIQTCWPGDVAPLLAWGLVITRGPNARRQNLGIYRQQPLGPNKLIMRWLSHRGGALDFRDHAQAHPGKPFPIAVALGADPATILGAVTPVPDTLSEYQFAGLLRGSRTEVVKALGSDLSVPASAEIVLEGHLLPADDPRAVAAAVPEGANPPPATGYEMALEGPYGDHTGYYNEQDWFPVFTVDRITMRRNPIYHSTYTGKPPDEPAVLGVALNEVFVPLLRRQLPEIVDFYLPPEGCSYRLAVVSIRKQYAGHAKRVMFGLWSVLRQFMYTKFIVVVDEDIDPRDWTEVVWAMTTRMDPVRDTVLVENTPIDYLDFASPVSGLGGKMGLDATNKWPGETSREWGTPIHMDEAVKRRVDAMWDTLGLAAALEHHHHHH”, the “soluble on expression in E. coli” value is reported as “not soluble”.
As for “STSTFQTRRRRLKKVEEEENAATLQLGQEFQLKQINHQGEEEELIALNLSEARLVIKEALVERRRAFKRSQKKTREKELESIDVLLEQTTGGNNKDLKNTMQYLTNFSRFRDQETVGAVIQLLKSTGLHPFEVAQLGSLACDTADEAKTLIPSLNNKISDDELERILKELSNLETLY”, the entry is “soluble”.
As to “MAHHHHHHMRVLSGVELEAVNRVVEHLRCHPEDLHRNEFRELREYMASLGASIPPPPDTPDVSGVRKEANSDDEEEYVSEPDSQRCALEPVSDDDITAYDGTDPTPEDEERAMGLKAQAAELAADGDFDKAIELMGQALRIVPGKAMYWAQRASYFLKCTQPGAALQDANRALDLNPENVRALRVRGTVNRRLGKWEEALKDLSEAQAVDYDEGIDEILRFVQKRTNDRRQFQQRKKEAQRLRQEALRRQREHELREEEMKREQQQQRDQQQSGAGDFPGGAGGFPGGFPGGAGGGGMQSFMESLFQDQELAEAMKDPEVAAKLATLRSNPMAALQMMGDPKVGPLIQKMMSKAMGGSSPGSSPFGAGASAGATSHADAHHSDELD”, the “soluble on expression in E. coli” value was “soluble”.
Turning to “MGSDKIHHHHHHMKIRYGIIGVGGHGKNRHLIPLIKLKNKVEIVAVADVKKERCEEVSSQFNIKCYLDYMEMVEKESLNAVSIVTPTGLHSRIAINVLNKGVNVLVDKPLGSNLEEVKEVVNTARNKGLKLMVGYWSRFSPALQYGKEIIHNGLLGEPYVAYGYLVRRRGIPGIPTFIDKTLSGGRGALLDIGCYLIDNLLSLLKFRKPISVMGKVYTKFGNVKEEVKFNWGSWDPENFSLDDYAVGLVKLEGDVSLILEVGWSANVSHVEEKSYVRILGDKGGIEGSGHEAIVDISFHSRTENFLTDTKPVLRKVDPYFEMINAFVDSILTDREPPITGEESVTLHSIIDGIYKSSTEDKEVKISL”, the “soluble on expression in E. coli” value was “not soluble”.
Turning to “MAGDPMIMVNLRIINFIGDIMKIRGICYRCGAEDELIDGLCPICYAQEHPLIEVPDRVEIEVCHMCGSYKRKIWQTPKSEEAFEILNEIAYYATKDAIKKKSVMVEVEIYPEVTQLPGGKRSKLIIPVHIVARGRLPGEKEDRTYEKDIEVHLRMVQCPRCSRFMSNYYEATLQVRAMNRYLTEEEREELDNFVREELAKRLKKDRMAFIAKFIPQKEGLDYQLGSVGAARNVAQRIKEKYGGKITETATLVGVDRDSGKELYRVTVSVRVPEYKVGDVVEYKDKYYLVTAITEDKVYMKSIDYKREKIGLAWHIAEKETKMAKKKDELDTATVIATTPTIMVMDDKSYEVYEFDNIGDVKIKEGDKVKIFKKEGVSYLVNKIEGKDKQLEHHHHHH”, the “soluble on expression in E. coli” value is “soluble”.
As for “MEEDNQSPSPSESSIKTDYDAKIRVLYSTKNNKSEEESVFAHRLVLSTFSPLFQQLLQDATSSSTSTTSSTSSDDVISISLDLTAFPNALAAFKVILEALYTGDIKMKSVAANEVLAVSRHCQISSLEPKIMSAVAPLPLNLANILNCSQSVPLNSNPFLQYTSPPIQNYLSSMISLWSNPFFSALFGNTTGTPSLPFSPQSDTENSRTQSEGSSPRANSTSTPPTTDLEKIVPNDDKEGWCRNKKYIEKVDGGFMCTVCRKIYGRYNSVSYHVTIYHRNPPIKCEENGCNFSTREARYIHFHKYYRHHIPLPENIDLGSRKCPFCRHVSKSPAMLEKHIARHETDGTSGGTPGALKRAQSKKKIVPTMTTDVIDPNVSSIFAPTNPAGNIPIQCSLCPFSTHSTDLLFIHLAMQHAQELAQCSGLLADNSSETSTSSSSDGEPMITDIDLDVKPLIDQSLMLHLNTPLSN”, the entry is “not soluble”; as for “MKYLAGIVTFNPNIERLDQNIRAIYPQVSHIYIVDNGSKNKEEISQLVADYNEEGHLTVDYLTENKGIAYALNCIGQFAVAQEFDWFLTLDQDSVVLGDLIDNYENYLHLPKVGMLSCLYQDMNRENLVMQEFDYKEIEECITSAALMKTSVFEETSGFAEEMFIDFVDSEMNYRLSEMGYKTYQVNFIGLLHEIGHSSRVKKFGHVFHVLNHSPFRKYYMIRNAIYIIKKYGKKKRYKYLVFMRNEFVRVLVAEEQKSKKIVAMIKGLKDGLLMKVDKYGKLEHHHHHH”, “soluble”.
As for “MERPISEAYFQEAKRHIPGGVSSPVRAFKAVGGTPPFLVRGEGAYVWDADGNRYLDYVMSWGPLILGHAHPKVLARVRETLERGLTFGAPSPLEVALAKKVKRAYPFVDLVRFVNSGTEATMSALRLARGYTGRPYIVKFRGNYHGHADGLLVEAGSGALTLGVPSSAGVPEEYAKLTLVLEYNDPEGLREVLKRRGEEIAAIIFEPVVGNAGVLVPTEDFLKALHEAKAYGVLLIADEVMTGFRLAFGGATELLGLKPDLVTLGKILGGGLPAAAYAGRREIMEKVAPLGPVYQAGTLSGNPLAMAAGLATLELLEENPGYYAYLEDLGARLEAGLKEVLKEKGLPHTVNRVGSMITVFFTEGPVVTFQDARRTDTELFKRFFHGLLDRGIYWPPSNFEAAFLSVAHREEDVEKTLEALRKAL”, the entry is “soluble”; as for “MFSAPLENTMLCNMGGSHEKARARENERMRERERGKEQRTYFATGSLARCQAGSVRRAPGTRRHPGSSTVQGFGTVVSLEANKEMKKEETFFFASLFLYRLGGPLTGTVGYANKTTGR”, “not soluble”; as for “MDPTQHRKAARPCDARRVLVLQGGGALGAYQAGAYQALCHHDFEPQWLAGISIGAINAAIIAGNPREQRVEKLKQFWEMASSPVPWQPLLRDDHVHSLFNETSAAMIATFGVPGFFTPRFPPTHLLPSGKPSNLSYYDTAPLRSTLERLVDFDRLNHNGIRLSVGAVNIATGNFVYFDTTKQIIGPEHIMASAALPPGFPAIEIDGEHYWDGGVASNTPLDYVL”, “not soluble”.
Take “MADEPLHYGEDYHFIHATSAASGLGVSVLPDLYCHTIQIVNICLVGRPDDHAFVLVDAGMPGSADDIVSVVEDRFGSGSRPQAIVLTHGHFDHVGAIVELVKHWNVPVYAHPAELPYLTGKASYPEPDASVEGGFIAKISPFFPNEPIQLGNRVQPLPADGTVPHLPEFRWIHTPGHTPGHISLFRPRDAALIAGDAFVTVRQDSLYKVLTQQIEISGPPRYYTIDWRAARESVRKLAALFPSVAITGHGAPVAGKELREGLTKLARDFDRIATPDYGKYVH”: the “soluble on expression in E. coli” value is given as “soluble”.
With “MGSDKIHHHHHHMLIHQQYTRHGPDYRFGEQMTFLDVKQTFGFSHVRVGRWVTREESLIAANLVFDSLADLAFILHLPPLTLGLRQSLSLAFGHGGQKGVQAHYAPAARELALAKNAGAGALAHEFWHAFDHYVAPKAFQRVTGRFTCASDLWLADLPLIDHPLNQRLVEIFRVTLLSEDNLAPSDYVRRAIALDKRYGSQYFAKPTEMMARAFEACIESYQGIQNPYLVSGTRYSSLAKEGAYPDEPHRQRIFKALIAYFEPLGIALGKAG”, the “soluble on expression in E. coli” value is reported as “not soluble”.
As for “MILVTGGARSGKSRHAEALIGDAPQVLYIATSQILDDEMAARIQHHKDGRPAHWRTAECWRHLDTLITADLAPDDAILLECITTMVTNLLFALGGENDPEQWDYAAMERAIDDEIQILIAACQRCPAKVVLVTNEVGMGIVPENRLARHFRDIAGRVNQRLAAAADEVWLVVSGIGVKIK”, the entry is “soluble”.
To “MNTLGLYQSDWSKAPPHAHAYHVKTTREQGHYHLIEGFTQPANGSNTDQHTHYYTGITSFENGHFHRYYGISGPAIPLADGTHYHEIEETTYLAYNEPIEIQYGGVVYDPGDDRRKTHRHTLKGKTREIVGNEPLGR” belongs “soluble”.
